From patent US20240317847A1 (Bayer, published 2024)
Residue numbers refer to the chain shown, from its start.

Assays:
[1] = biological target: T1, human IL-11 (Invigate, e.g., lot #C121021-19) (human, UniProt P20809 22-199); assay: Di-complex ELISA: biotinylated human IL-11 on streptavidin plate, antibody titrated against 2 nM canine IL11RA-human-Fc (competitor)
T1 construct: Bought protein; also called hIL-11; hIL11
T1 sequence: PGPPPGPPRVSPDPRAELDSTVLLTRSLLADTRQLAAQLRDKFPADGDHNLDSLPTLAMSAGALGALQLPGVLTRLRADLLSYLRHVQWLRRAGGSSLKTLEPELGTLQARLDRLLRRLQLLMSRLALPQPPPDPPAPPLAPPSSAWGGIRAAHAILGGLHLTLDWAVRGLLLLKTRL
Experimental: (§1) In the Di-complex ELISA format anti IL-11 antibodies are tested for the ability to interfere with the formation of complexes consisting of immobilized murine IL-11 (Invigate, e.g., lot #C210819-09) or human IL-11 (Invigate, e.g., lot #C121021-19), and murine IL11RA-Fc fusion proteins or canine IL11RA-human-Fc fusion protein (FIG. 17a, b).
(§2) The assay is performed using streptavidin coated microtiter plates (Greiner bio-one, #781997). In a first step, 10 nM biotinylated mouse IL-11 (Invigate, Germany, e.g., lot #C210819-09) or human IL-11 (Invigate, Germany, e.g., lot #C121021-19) is coated in 25 μl PBS on the plate at 4° C. overnight. Next day, the plate is washed three times with 50 μl PBST and then blocked with 50 μl SmartBlock (Candor, #113125) for one hour at room temperature (RT). After additional three washes with PBST, 25 μl of a mixture of the murine anti IL-11 antibody and recombinant canine IL11RA-Fc fusion protein (Sino Biological, #70078-D02H) in PBS-T, 10% Smartblock are added simultaneously to the plate and incubated for one hour at RT. […] After three additional washes with PBS-T, 25 μl anti-human-POD (Sigma, #A0170) in PBS-T, 10% Smartblock is added and incubated for 1 hour at RT. After a final three washes with PBS-T, 25 μl AmplexRed (Fisher Scientific, A12222), 1/1000 in PBS, 0,003% H₂O₂, is added as substrate and incubated for 15 min at RT in the dark. Then, the fluorescence is measured with a plate reader at 535/595 nm. Signals from dose responses were used to calculate IC50 values (GraphPad Prism). Efficacy was calculated as [(signal measured at lowest antibody concentration−signal measured at the highest antibody concentration)×100] divided by (signal measured at lowest antibody concentration−signal measured in the absence of IL11Ra).

[2] = biological target: T2, murine IL-11 (Invigate, e.g., lot #C210819-09) (mouse, UniProt P47873 22-199); assay: Di-complex ELISA: biotinylated murine IL-11 on streptavidin plate, antibody titrated against 2 nM canine IL11RA-human-Fc (competitor)
T2 construct: Bought protein; biotinylated where captured on streptavidin plates; also called mIL-11; mIL11
T2 sequence: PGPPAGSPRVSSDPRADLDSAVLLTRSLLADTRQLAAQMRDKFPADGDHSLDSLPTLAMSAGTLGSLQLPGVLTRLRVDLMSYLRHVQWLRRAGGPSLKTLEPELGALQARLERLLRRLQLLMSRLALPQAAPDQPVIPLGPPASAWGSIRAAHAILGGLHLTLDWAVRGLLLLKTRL
Experimental: as §1, §2

[3] = biological target: T3, murine IL-11 (mouse, UniProt P47873 22-199); assay: SPR (Biacore), 25 C, antibody captured via anti-Fc, IL-11 as analyte, determined in steady state
T3 construct: Invigate recombinant protein; biotinylated when immobilized in the Di-complex ELISA; also called mIL11; mIL-11
T3 sequence: T2 sequence

[4] = biological target: T4, human IL2Ra (human, UniProt P01589 22-240, limits assumed); assay: ELISA on coated IL2Ra, signal ratio to isotype control at 1E-07 M antibody
T4 construct: coated on the ELISA plate; also called IL-2 receptor alpha
T4 sequence (looked up): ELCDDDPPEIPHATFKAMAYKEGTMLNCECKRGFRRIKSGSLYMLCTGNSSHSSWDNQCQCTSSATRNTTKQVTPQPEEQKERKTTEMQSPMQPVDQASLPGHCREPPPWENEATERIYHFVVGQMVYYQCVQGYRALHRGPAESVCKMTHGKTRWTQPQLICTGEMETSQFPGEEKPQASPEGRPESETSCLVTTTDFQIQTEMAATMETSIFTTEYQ
Experimental: IL2RA (Peprotech, Germany, #200-02RC) was coated at 1 or 0 μg/ml (buffer only control) in 30 μl coating buffer (Candor, #113500) per well on a 384 well microtiter plate (Maxisorb, Nunc, #460518) over night at 4-8° C. After two washes with 50 μl/well washing buffer (PBS+0.05% Tween, pH 7.4), the plates were incubated for two hours at room temperature with 50 μl/well SmartBlock (Candor, #113500). After blocking, the plates were washed three times with washing buffer. Then, a dilution series of the respective antibody (1E-7 [M] down to 2E-13 [M]) in PBS+0.05% Tween, 10% SmartBlock were added in 30 μl to the microtiter plate and incubated for 90 min at room temperature. After three additional washes, 30 μl anti mouse IgG HRP-conjugated antibody (Biotechne, HAF007), diluted 1:1000 in PBS+0.05% Tween (pH 7.4), were added per well and incubated for one hour. After three additional washes, a mixture of Amplex red (Invitrogen, #12222, 10 mM stock solution in DMSO) 1:1000 diluted in PBS and H2O2 (30%, Merck, #107209)) diluted 1:10000 in PBS were added as substrate with 30 μl per well and incubated for 20 min in the dark. Relative fluorescence was measured with a microtiter plate reader at 535/590 nm.
Bispecific antibodies were subjected to the experimental assay procedure described in Example 20. Ratios of the signals generated at an antibody concentration of 1E-07 [M] by the respective bispecific antibody versus those of an isotype control antibody were calculated and are shown in Table E29. The bispecific antibodies show no binding to IL-2 Ra.

B1: TPP-18087 (antibody, mouse IgG1, V domains shown)
VH: EVQLLESGGGLVQPGGSLRLSCAASGFTFSHYDMNWLRQAPGKGLEWVGVISYDGSNKFYADFVKGRFTISRDNSKNTLYLQMNSLRAEDTAVYYCARTPGSHFDYWGQGTLVTVSS
VL: QSVLTQPPSASGTPGQRVTISCSGSSSNIGNNAVNWYQQLPGTAPKLLIYYDDLLPSGVPDRFSGSKSGTSASLAISGLRSEDEADYYCSAWDDSLNGVVFGGGTKLTVLG
notes: mIgG1, Lambda
- Efficacy (%) [1]: 10.7%
- Efficacy (%) [2]: 13.4%

B2: TPP-18087 (antibody, mouse IgG1, V domains shown)
VH: B1 VH
VL: B1 VL
notes: mIgG1, Lambda
- Kd [3]: 33 nM

B3: TPP-19528 (antibody, mouse IgG1, V domains shown)
VH: EVQLLESGGGLVQPGGSLRLSCAASGFTFSIYAMSWVRQAPGKGLEWVSSISDTGDRTYYADSVKGRFTISRDNSKNTLYLQMNSLRAEDTAVYYCARSNWGSLDYWGQGTLVTVSS
VL: B1 VL with N31S, A33Y, N35Y, S90A, N97S, V99R
notes: mIgG1, Lambda
- Efficacy (%) [1]: 57%
- IC50 [1]: 3 nM
- Efficacy (%) [2]: 79%
- IC50 [2]: 24 nM

B4: TPP-29697 (bispecific antibody, IgG1)
chain 1: QVQLVESGGGVVQPGRSLRLSCAASGFTFSHYDMHWVRQAPGKGLEWVAVISYHGSVKFYADSVKGRFTISRDNSKNTLYLQMNSLRAEDTAVYYCARTPGFHFDYWGQGTLVTVSSGGGGSGGGGSGGGGSQSVLTQPPSASGTPGQRVTISCSGSSSNIGSNYVSWYQQLPGTAPKLLIYYDDLRPSGVPDRFSGSKSGTSASLAISGLRSEDEADYYCSAWDDSLSGVVFGGGTKLTVLGGGGSGGGGSGGGGSGVECPPCPAPPVAGPSVFLFPPKPKDTLMISRTPEVTCVVVGVSHEDPEVKFNWYVDGVEVHNAKTKPREEQYNSTYRVVSVLTVLHQDWLNGKEYKCKVSNKQLPSPIEKTISKAKGQPREPQVYTLPPCRDELTKNQVSLWCLVKGFYPSDIAVEWESNGQPENNYKTTPPVLDSDGSFFLYSKLTVDKSRWQQGNVFSCSVMHEALHNHYTQKSLSLSPGK
chain 2: EVQLLESGGGLVQPGGSLRLSCAASGFTFSSYGMHWVRQAPGKGLEWVAVISYDGSYKYYADSVKGRFTISRDNSKNTLYLQMNSLRAEDTAVYYCAAGVPDYWGQGTLVTVSSGGGGSGGGGSGGGGSQSVLTQPPSASGTPGQRVTISCSGSSSNIGSDYDVHWYQQLPGTAPKLLIYSNEERPSGVPDRFSGSKSGTSASLAISGLRSEDEADYYCSAWDSSLSGPVFGGGTKLTVLGGGGSGGGGSGGGGSGVECPPCPAPPVAGPSVFLFPPKPKDTLMISRTPEVTCVVVGVSHEDPEVKFNWYVDGVEVHNAKTKPREEQYNSTYRVVSVLTVLHQDWLNGKEYKCKVSNKQLPSPIEKTISKAKGQPREPQVCTLPPSRDELTKNQVSLSCAVKGFYPSDIAVEWESNGQPENNYKTTPPVLDSDGSFFLVSKLTVDKSRWQQGNVFSCSVMHEALHNHYTQKSLSLSPGK
notes: scFv-kih-hIgG1 with Fc-silencing mutations; bispecific comprising CDRs of TPP-29528 and TPP-29519
- Ratio IL-2Ra Binding Signal Antibody/Isotype Control [4]: 0.8 ratio

B5: TPP-29603 (bispecific antibody, IgG1)
chain 1: QVQLVESGGGVVQPGRSLRLSCAASGFTFSHYDMHWVRQAPGKGLEWVAVISYHGSVKFYADSVKGRFTISRDNSKNTLYLQMNSLRAEDTAVYYCARTPGFHFDYWGQGTLVTVSSGGGGSGGGGSGGGGSQSVLTQPPSASGTPGQRVTISCSGSSSNIGSNYVSWYQQLPGTAPKLLIYYDDLRPSGVPDRFSGSKSGTSASLAISGLRSEDEADYYCSAWDDSLSGVVFGGGTKLTVLGGGGSGGGGSGGGGSGVECPPCPAPPVAGPSVFIFPPKPKDVLTITLTPKVTCVVVDISKDDPEVQFSWFVDDVEVHTAQTQPREEQFNSTFRSVSELPIMHQDWLNGKEFKCRVNSAAFPAPIEKTISKTKGRPKAPQVYTIPPCKEQMAKDKVSLWCMITDFFPEDITVEWQWNGQPAENYKNTQPIMDTDGSYFVYSKLNVQKSNWEAGNTFTCSVLHEGLHNHHTEKSLSHSPGK
chain 2: EVQLLESGGGLVQPGGSLRLSCAASGFTFSSYGMHWVRQAPGKGLEWVAVISYDGSYKYYADSVKGRFTISRDNSKNTLYLQMNSLRAEDTAVYYCAAGVPDYWGQGTLVTVSSGGGGSGGGGSGGGGSQSVLTQPPSASGTPGQRVTISCSGSSSNIGSDYDVHWYQQLPGTAPKLLIYSNEERPSGVPDRFSGSKSGTSASLAISGLRSEDEADYYCSAWDSSLSGPVFGGGTKLTVLGGGGSGGGGSGGGGSGVECPPCPAPPVAGPSVFIFPPKPKDVLTITLTPKVTCVVVDISKDDPEVQFSWFVDDVEVHTAQTQPREEQFNSTFRSVSELPIMHQDWLNGKEFKCRVNSAAFPAPIEKTISKTKGRPKAPQVCTIPPPKEQMAKDKVSLSCAITDFFPEDITVEWQWNGQPAENYKNTQPIMDTDGSYFVVSKLNVQKSNWEAGNTFTCSVLHEGLHNHHTEKSLSHSPGK
notes: scFv-kih-mIgG1; bispecific comprising CDRs of TPP-29528 and TPP-29519
- Ratio IL-2Ra Binding Signal Antibody/Isotype Control [4]: 1.9 ratio
